Molecular target: T1, SHP2 binding to GST-PD1 (Homo sapiens, UniProt Q06124)
T1 construct: endogenous in cells; host or cells: SAP-knockdown Jurkat T cells (SHP2); GST-PD-1 tail made in BL21 E. coli
T1 sequence (Q06124 2-593 limits assumed): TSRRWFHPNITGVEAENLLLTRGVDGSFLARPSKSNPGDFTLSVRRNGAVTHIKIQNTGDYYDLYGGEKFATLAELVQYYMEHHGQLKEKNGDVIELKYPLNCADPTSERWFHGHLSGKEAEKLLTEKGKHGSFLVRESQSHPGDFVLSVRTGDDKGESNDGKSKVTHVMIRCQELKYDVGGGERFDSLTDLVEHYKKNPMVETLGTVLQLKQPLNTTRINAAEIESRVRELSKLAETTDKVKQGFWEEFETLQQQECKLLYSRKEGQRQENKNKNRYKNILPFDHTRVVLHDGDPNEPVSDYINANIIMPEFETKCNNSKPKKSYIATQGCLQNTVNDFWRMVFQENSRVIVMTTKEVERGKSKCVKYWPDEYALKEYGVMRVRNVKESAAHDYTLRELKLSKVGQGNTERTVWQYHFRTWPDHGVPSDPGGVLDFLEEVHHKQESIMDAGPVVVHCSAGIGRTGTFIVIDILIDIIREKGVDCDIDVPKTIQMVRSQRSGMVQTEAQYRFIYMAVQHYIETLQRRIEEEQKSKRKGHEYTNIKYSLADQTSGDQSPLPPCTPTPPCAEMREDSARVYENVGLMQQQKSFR
T1 sequence (Q15116 192-288 partner limits assumed): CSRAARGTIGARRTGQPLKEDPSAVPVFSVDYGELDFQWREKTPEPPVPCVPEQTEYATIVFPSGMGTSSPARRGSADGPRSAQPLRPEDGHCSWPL
Experiment: Affinity purification of SHP2 by GST-PD1 with increasing concentrations of recombinant SAP
Details: increasing concentrations of recombinant SAP added to SAP KD Jurkat cell lysate
Protocol: FIG. 3. SAP is indirectly associated with PD-1. (ai) Pervanadate treated Jurkat T cells were transiently transfected with GFP-tagged PD-1 or GFP alone; Whole cell lysates (WCL) were immunoprecipitated with an anti-GFP antibody (IP: GFP), and samples were analyzed by immunoblotting. (aii) Densitometry values of data shown in ai. (b) Jurkat T cells were transfected with plasmids directing expression of the indicated fluorescent proteins and after 24 hours cells were stimulated with anti-CD3 antibodies and recombinant PDL2, followed by live-imaging. Bar, 10 μm. […] (di) Jurkat T cells were transfected with different versions of GFP-tagged PD-1, as indicated, followed by treatment with pervanadate; Whole-cell lysates (Input) were immunoprecipitated with an anti-GFP antibody (IP: GFP), and samples were analyzed by immunoblotting. […] (ei) 293T cells were transfected with plasmid directing expression of GFP-SAP or a control GFP plasmid, followed by treatment with pervanadate; Lysates were pulled-down with the GST-tagged PD-1 and samples were analyzed by immunoblotting. […] (gi) SHP2 KD and scrambled control Jurkat T cells were transfected with GFP-tagged PD-1, followed by treatment with pervanadate; Lysates were immunoprecipitated with an anti-GFP antibody (IP: GFP), and samples were analyzed by immunoblotting. […] Samples were analyzed by immunoblot. […]

B1: SAP: Recombinant human SAP (His tagged), signaling lymphocytic activation molecule-associated protein, purchased from Abcam (protein, UniProt O60880 1-128, looked up)
SH2 domain-containing protein …: MDAVAVYHGKISRETGEKLLLATGLDGSYLLRDSESVPGVYCLCVLYHGYIYTYRVSQTETGSWSAETAPGVHKRYFRKIKNLISAFQKPDQGIVIPLQYPVEKKSSARSTQGTTGIREDPDVCLKAP
modifications: His tag
  interference with the affinity-purification of SHP2 by GST-PD1: did not interfere
